In patent publication US20030212001A1 (THERATECHNOLOGIES, published 2003):
Each block holds one binder with its values, some of them ahead of it.

Target: R-14 protein (as present in the eye of newborn pigs)
Assay: cell-based or functional assay

IC50, dose response on basal intraocular pressure (IOP) of piglet: 86.4 nM
B1: peptide 1402 (peptide)
peptide: HIICSPLR

IC50, dose response on basal intraocular pressure (IOP) of piglet: 342 nM
B2: peptide 1405 (peptide)
peptide: IFDSTECW
